Results as given in patent US20050164323A1 (Pfizer, published 2005).

Target: PKC-θ kinase domain (PKC-θ KD; amino acid residues 362 to 706), C-terminal hexa-histidine tag, expressed in … (Homo sapiens (Human), UniProt Q04759 362-706, autophosphorylated at 5 or 6 residues in E. coli; sites identified: Ser695, Ser685 and Thr538 or Thr536 (numbering of full-length PKC-θ))
Assay: cell-based or functional assay

Chain of PKC-θ kinase domain (PKC-θ KD; amino acid residues 362 to 706), C-terminal hexa-histidine tag, expressed in … (Q04759 other isoform, or with tags, fused parts or gaps limits assumed): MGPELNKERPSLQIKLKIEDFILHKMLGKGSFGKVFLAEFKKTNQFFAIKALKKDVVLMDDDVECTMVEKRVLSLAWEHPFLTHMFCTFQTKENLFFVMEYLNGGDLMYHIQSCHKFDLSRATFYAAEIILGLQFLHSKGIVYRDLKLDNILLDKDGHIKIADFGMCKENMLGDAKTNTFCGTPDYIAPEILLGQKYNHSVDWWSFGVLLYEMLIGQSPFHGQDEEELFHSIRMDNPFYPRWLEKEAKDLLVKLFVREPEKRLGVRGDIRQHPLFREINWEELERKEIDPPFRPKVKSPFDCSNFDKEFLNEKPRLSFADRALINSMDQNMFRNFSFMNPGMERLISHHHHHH

Row | appKm (steady-state kinase kinetics, saturating ATP, 100 mM NaCl) [µM] | Binder
1 | 240 | RTPKLARQASIELPSM [Peptide 4 (RTPKLARQASIELPSM), substrate, lymphocyte-specific protein 1]
2 | 420 | LKRSLSEM [Peptide 3 (LKRSLSEM), substrate, Serum Response Factor]

The remaining lines, values behind:

Row | Binder | appKm (steady-state kinase kinetics, saturating ATP, 100 mM NaCl) [µM]
3 | RFARKGSLRQKNV [Peptide 2 (RFARKGSLRQKNV), substrate, pseudo-substrate PKC alpha] | 4.3
4 | FARKGSLRQ [Peptide 1 (FARKGSLRQ), substrate, pseudo-substrate PKC alpha] | 6.5
